Experimental findings from the FLAb antibody collection (doi:10.7554/elife.23156) are described below.

To fix the notation:
B1: scFv; the commonest letter at each place (parent)
chain 1: EVKLDETGGGLVQPGRPMKLSCVASGFTFSDYWMNWVRQSPEKGLEWVAQIRNKPYNYETYYSDSVKGRFTISRDDSKSSVYLQMNNLRVEDMGIYYCTGSYYGMDYWGQGTSVTVS
chain 2: DVVMTQTPLSLPVSLGDQASISCRSSQSLVHSNGNTYLRWYLQKPGQSPKVLIYKVSNRFSGVPDRFSGSGSGTDFTLKISRVEAEDLGVYFCSQSTHVPWTFGGGTKLEIK

The variants in the series “fluorescein” derive from B1. Nature of the series: Kd (Tite-Seq). The note with it: with fluorescein; format: scFv 4-4-20, heavy + light.
In series [1] the parent is B1. Nature of the series: yeast surface expression (ratio to wild type); higher = more expressed. The note with it: format: scFv 4-4-20, heavy + light.

What is called Kd is a measure of binding affinity in units of concentration. Consider chain 1 S30E D31N, for which, in the series with fluorescein, the dissociation constant (Kd) came out at 0.000504 µM. Moreover, the yeast surface expression in series [1] was found to be 0.934.
On the same counts, the results for chain 1 M34E are at least 10 µM and 0.617.
Turning to chain 1 M34G, the Kd with fluorescein amounted to 1.23 µM. In series [1], the yeast surface expression was 0.682.
On the same counts, the results for chain 1 M34A are 0.00826 µM and 0.783.
On the same counts, the results for chain 1 M34T are 0.00293 µM and 0.777.
As for chain 1 W33E M34W, the Kd with fluorescein is at least 10 µM. Moreover, the yeast surface expression in series [1] amounted to 0.966.
For chain 1 G100D G109V, in that order: at least 10 µM and 0.136.
chain 1 S30I W33Y V37P: the Kd with fluorescein worked out at 7.33 µM. The yeast surface expression in series [1] stood at 0.0571.
On the same counts, the results for chain 1 S30D W36R are at least 10 µM and 2.14.
On the same counts, the results for chain 1 Y102M Y103T are at least 10 µM and 0.766.
Consider chain 1 Y102M Y103E, for which, in the series with fluorescein, the dissociation constant Kd was at least 10 µM. The yeast surface expression in series [1] worked out at 1.26.
On the same counts, the results for chain 1 Y103N G104F are at least 10 µM and 0.839.
For chain 1 Y103N G104P, in that order: at least 10 µM and 0.478.
chain 1 G109I: the dissociation constant (Kd) with fluorescein is at least 10 µM. The yeast surface expression in series [1] is 0.269.
For chain 1 F29W D31G, in that order: 5.37 µM and 0.567.
For chain 1 G100C W108G, in that order: at least 10 µM and 0.401.
For chain 1 G104I Y107D, the Kd with fluorescein is at least 10 µM. In series [1], the yeast surface expression was determined as 0.2.
Take chain 1 T28A D31L: the Kd with fluorescein came to 0.00655 µM. Also, the yeast surface expression in series [1] stood at 0.713.
On to chain 1 Y103W G104F M105E, for which the Kd with fluorescein is at least 10 µM. Moreover, the yeast surface expression in series [1] stood at 0.578.
For chain 1 Y32D W33E, in that order: at least 10 µM and 0.525.
As for chain 1 F29C N35K, in the series with fluorescein, the Kd is at least 10 µM. Besides, the yeast surface expression in series [1] was determined as 1.18.
As to chain 1 T28E F29Y, in the series with fluorescein, the Kd came to 0.00468 µM. In addition, in series [1], the yeast surface expression was 1.01.
On to chain 1 F29A S30D M34K, for which, in the series with fluorescein, the equilibrium dissociation constant (Kd) is at least 10 µM. For the same variant, the yeast surface expression in series [1] amounted to 0.41.
On the same counts, the results for chain 1 D106T G109M are at least 10 µM and 0.285.
For chain 1 G100H, in that order: at least 10 µM and 0.432.
On the same counts, the results for chain 1 S101M Y103G are at least 10 µM and 0.868.
For the variant chain 1 Y32K V37S, the Kd in the series with fluorescein was at least 10 µM. Also, in series [1], the yeast surface expression was 0.852.
On the same counts, the results for chain 1 G104V M105R G109W are at least 10 µM and 0.425.
Consider chain 1 G100M G104P D106I, for which the Kd in the series with fluorescein was at least 10 µM. The yeast surface expression in series [1] came to 0.361.
On to chain 1 G100W D106C, for which the Kd with fluorescein is at least 10 µM. The yeast surface expression in series [1] was 0.437.
On the same counts, the results for chain 1 G100S M105I are at least 10 µM and 0.943.
For the variant chain 1 G100S M105W, the equilibrium dissociation constant (Kd) in the series with fluorescein is 5.37 µM. Besides, the yeast surface expression in series [1] amounted to 0.758.
Regarding chain 1 Y102V W108Y, in the series with fluorescein, the dissociation constant (Kd) came to 0.000504 µM. Further, the yeast surface expression in series [1] was 0.855.
For the variant chain 1 F29N S30Q, the Kd with fluorescein came to 0.876 µM. The yeast surface expression in series [1] is 1.02.
As for chain 1 D106C W108H, the Kd with fluorescein was at least 10 µM. Also, in series [1], the yeast surface expression amounted to 0.583.
As for chain 1 S30T W36M, the equilibrium dissociation constant (Kd) in the series with fluorescein turned out to be 0.02 µM. Moreover, the yeast surface expression in series [1] came to 0.705.
On the same counts, the results for chain 1 G100Y D106S are at least 10 µM and 0.505.
On the same counts, the results for chain 1 G100N G104W are at least 10 µM and 0.281.
chain 1 G100N G104Y: the Kd with fluorescein is at least 10 µM. Further, the yeast surface expression in series [1] turned out to be 0.185.
For chain 1 G100Y M105S, in that order: at least 10 µM and 0.377.
For chain 1 G100E D106M, in that order: at least 10 µM and 0.17.
For chain 1 G100E D106Q, in that order: at least 10 µM and 0.172.
As for chain 1 Y103L M105C, the Kd in the series with fluorescein is at least 10 µM. Further, the yeast surface expression in series [1] was 1.
With chain 1 D106R Y107N, the Kd with fluorescein is at least 10 µM. For the same variant, the yeast surface expression in series [1] is 0.359.
On the same counts, the results for chain 1 S101T Y103P are at least 10 µM and 0.643.
On the same counts, the results for chain 1 F29S D31Y are 0.00343 µM and 0.752.
Regarding chain 1 V37F, in the series with fluorescein, the Kd was 0.0259 µM. Also, the yeast surface expression in series [1] came to 0.9.
Take chain 1 V37S: in the series with fluorescein, the dissociation constant Kd came out at 0.00561 µM. In addition, in series [1], the yeast surface expression stood at 0.673.
Turning to chain 1 V37E, in the series with fluorescein, the Kd was at least 10 µM. Besides, in series [1], the yeast surface expression amounted to 0.597.
In the case of chain 1 D31C W33P, the equilibrium dissociation constant (Kd) in the series with fluorescein is at least 10 µM. Further, the yeast surface expression in series [1] was 0.671.
With chain 1 W36E, the Kd with fluorescein is at least 10 µM. The yeast surface expression in series [1] is 0.765.
As to chain 1 W36N, the dissociation constant (Kd) with fluorescein is at least 10 µM. Besides, in series [1], the yeast surface expression was 0.978.
For chain 1 W36C, the Kd with fluorescein was at least 10 µM. In series [1], the yeast surface expression came to 0.561.
As to chain 1 S101G Y107K, in the series with fluorescein, the dissociation constant (Kd) is at least 10 µM. Also, in series [1], the yeast surface expression is 0.907.
On to chain 1 W33M M34H N35K, for which the Kd with fluorescein was at least 10 µM. Further, the yeast surface expression in series [1] is 0.305.
Turning to chain 1 Y102Q M105D, in the series with fluorescein, the Kd is at least 10 µM. For the same variant, in series [1], the yeast surface expression was 0.932.
In the case of chain 1 Y102K G109I, the Kd with fluorescein was at least 10 µM. Further, the yeast surface expression in series [1] amounted to 0.226.
For chain 1 S30F M34C, in that order: 4.14 µM and 0.514.
